Where two headings read alike, the source gives them in different places. Ends that are not written are not given here.
T1: CCR1 (Homo sapiens, UniProt P32246)
T1 construct: full length cDNA encoding CCR1 was cloned by the polymerase chain reaction (PCR) from genomic DNA isolated from human peripheral blood cells; expressed in transfected cells; pcDNA3.1 vector)
T1 sequence (P32246 1-355): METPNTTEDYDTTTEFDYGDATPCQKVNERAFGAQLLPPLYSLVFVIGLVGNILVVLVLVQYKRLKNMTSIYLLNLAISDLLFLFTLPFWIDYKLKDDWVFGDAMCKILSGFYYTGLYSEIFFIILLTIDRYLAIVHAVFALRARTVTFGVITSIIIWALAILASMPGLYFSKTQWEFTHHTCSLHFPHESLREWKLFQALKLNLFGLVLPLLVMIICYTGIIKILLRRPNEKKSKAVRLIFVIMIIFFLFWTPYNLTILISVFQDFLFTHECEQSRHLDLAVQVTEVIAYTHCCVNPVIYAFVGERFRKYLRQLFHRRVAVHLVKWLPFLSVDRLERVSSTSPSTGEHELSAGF


Experiments:
human monocytes = assay: Calcium flux in human monocytes; format: cell-based; settings: for calcium flux: human monocytes, Example 8; for calcium release: freshly prepared human monocytes, up to 250 nM
Experimental: (§1) Ca^2+ mobilization responses were performed using the intracellular ratiometric fluorescent dye, lndo-1. Cells were loaded with Indo-1/AM (3 μM; Molecular Probes, Eugene, Oreg.) in culture medium (45 min, 20° C., 10^7 cells/ml). After dye loading, cells were washed once with 10 ml PBS) and resuspended at 10^6 cell/ml in HBSS containing 1% FBS. Cytosolic [Ca^2+] release was determined using excitation at 350 nm using a Photon Technology International fluorimeter (excitation at 350 nm, ratioed dual emission at 400 and 490 nm).
(§2) The human recombinant chemokines, leukotactin, MlP-1α, three known CKβ8 variants CKβ8(1-99), CKβ8(25-99), CKβ8-1(1-116) and a novel NH2-terminal truncated form of CKβ8-1, CKβ8-1 (25-116) were obtained from R&D Systems (Minneapolis, Minn.). Human monocytes were generated from buffy coats (Stanford Blood Center, Palo Alto, Calif.) following a standard protocol. Briefly, PBMC were isolated by standard density gradient centrifugation (Ficoll-Paque-Plus, Pharmacia). Monocytes were purified using CD14 Microbeads (Miltenyi, Auburn, Calif.) magnetic positive selection. Human neutrophils were isolated from fresh peripheral blood from healthy individuals by gradient centrifugation on Ficoll-Hypaque (Hyclone, Calif.).
The activity of the CCL23 variants was tested on freshly prepared human monocytes and neutrophils using the calcium flux test described in Example 1.
(§3) Human monocytes were either generated from buffy coats (Stanford Blood Center, Palo Also, Calif.) or from fresh blood of healthy individuals following a standard protocol. Briefly, PBMC were isolated by a Ficoll-Paque gradient centrifugation (Ficoll-Paque-Plus, Pharmacia). Monocytes were purified by CD14 Microbeads (Miltenyi) magnetic positive selection. Human neutrophils were isolated from fresh blood by dextran sedimentation and gradient centrifugation Ficoll-Paque gradient centrifugation. All cells were washed and resuspended (1×10^7/ml) in RPMI medium with 10% FBS.
as §1, with “an” for “the”, “Indo-1.” for “lndo-1.”, “Probes (Eugene, Oreg.))” for “Probes, Eugene, Oreg.)”, “cells/mi).” for “cells/ml).”, “(10” for “with 10”

human neutrophils = assay: Calcium flux in human neutrophils; format: cell-based; settings: for calcium flux: human neutrophils
Experimental: as §1, §2, §3
as §1, with “an” for “the”, “Indo-1.” for “lndo-1.”, “Probes (Eugene, Oreg.))” for “Probes, Eugene, Oreg.)”, “cells/mi).” for “cells/ml).”, “(10” for “with 10”

immature Dendritic Cells = assay: Calcium mobilization, immature dendritic cells; format: cell-based, human
Experimental: (§4) Human recombinant CKβ8-1(25-116) chemokine was obtained from R&D Systems (Minneapolis, Minn.). The peptide SHAAGtides SEQ ID NO:1 and SEQ ID NO:6 and a control protein (the reverse sequence of SEQ ID NO:1) were synthesized and HPLC-purified using routine techniques as described in Sambrook et al., 1989, and Ausubel et al., 1999.
(§5) Immature DCs were derived by culturing CD14+ monocytes in the presence of GM-CSF and IL4. Briefly, monocytes were cultured in a T-175 flask at 10^6 cells/ml in RPMI/10% FCS. Recombinant human GM-CSF and IL4 were added on day 0, 2, 4 and 6 to a final concentration of 1000 u/ml and 500 u/ml, respectively. Cells were harvested on day 7 as immature DCs and characterized for surface protein expression by FACS analysis. DC maturation was carried out by culturing day 6 immature DCs in macrophage-conditioned medium (MCM). Briefly, day 6 immature DCs were harvested by centrifugation and resuspended in MCM at 10^6 cells/ml. The medium was supplemented with 1000 u/ml of GM-CSF and 500 u/ml IL4. After three more days of culture, cells were harvested as mature DCs and characterized by surface protein expression flow cytometry.
as §1, with “an” for “the”, “Indo-1.” for “lndo-1.”, “Probes (Eugene, Oreg.))” for “Probes, Eugene, Oreg.)”, “cells/mi).” for “cells/ml).”, “(10” for “with 10”

mature Dendritic Cells = assay: Calcium mobilization, mature dendritic cells; format: cell-based, human
Experimental: as §4, §5
MCM was prepared as follows: PBMCs isolated from buffy coat were incubated at 37° C. in a plastic flask pre-coated with 10 mg/ml human IgG (Sigma, St Louis, Mo.) for 30 minutes. After 30 minutes, non-adherent cells were removed and adherent cells were washed three times with DPBS, then cultured in RPMI/10% human serum. Conditioned-medium was collected after 24 hours. TNF-α concentration, which is critical for DC maturation, was determined by using a TNF-α ELISA kit (R&D Systems, Minn.). The final TNF-α level in MCM was adjusted to 50 u/mi by mixing with RPMI/10% human serum, and was stored at −80 freezer until use.
as §1, with “an” for “the”, “Indo-1.” for “lndo-1.”, “Probes (Eugene, Oreg.))” for “Probes, Eugene, Oreg.)”, “cells/mi).” for “cells/ml).”, “(10” for “with 10”

CCR1 = molecular target: T1, CCR1; assay: 125I-MIP-1α binding competition, HEK293-CCR1 cells
Experimental: The binding characteristics of CCL23 variants was compared in human CCR1 expressing cells. […] Reactions mixtures were aspirated onto PEI-treated GF/B glass filters using a cell harvester (Packard). The filters were washed twice (25 mM HEPES, 500 mM NaCl, 1 mM CaCl2, 5 mM MgCl2, adjusted to pH 7.1). Scintillant (MicroScint-10; 35 μl) was added to dried filters and the filiters counted in a Packard Topcount scintillation counter. Data were analyzed and plotted using Prism software (GraphPad Software, San Diego, Calif.).

Row | maximal receptor stimulation compared with leukotactin (human monocytes; monocytes, 100 nM) | IC50 increase of truncated variant versus full-length variant (CCR1; HEK293-CCR1) | fold less potency than CKβ8(1-99) (CCR1; displacement of bound 125I-MIP-1α from CCR1) | Molecule | calcium flux (human monocytes) | calcium flux (human neutrophils; Example 8) | calcium flux (immature Dendritic Cells) | calcium flux (mature Dendritic Cells) | calcium release (human monocytes) | calcium flux (human neutrophils; 100 nM) | magnitude of calcium release compared with leukotactin (human neutrophils; neutrophils, same amount of leukotactin) | calcium flux (immature Dendritic Cells; listed as CKβ8-1 (25-116))
1 |  |  |  | MLWRRKIGPQMTLSHAAG [SEQ ID NO: 1] | robust calcium flux | robust calcium flux | partially active | partially active |  |  |  | 
2 |  |  |  | MLWRRKIGPQMTLSHAAY [SEQ ID NO: 6] | robust calcium flux | robust calcium flux | partially active | partially active |  |  |  | 
3 |  |  |  | CKβ8(25-99): known truncated CKβ8 variant, human recombinant chemokine from R&D Systems (protein, listed as Homo sapiens) RFHATSADCCISYTPRSIPCSLLESYFETNSECSKPGVIFLTKKGRRFCANPSDKQVQVCMRMLKLDTRIKTRKN |  |  |  |  | slightly higher calcium stimulation | neither MlP-1α nor CKβ8(1-99), CKβ8(25-99) or CKβ8(1-116) induced a calcium flux |  | 
4 | at least two fold higher | one fold |  | CKβ8-1(25-116): novel NH2-terminal truncated form of CKβ8-1, SEQ ID NO: 16, human recombinant chemokine (protein, listed as Homo sapiens) MLWRRKIGPQMTLSHAAGFHATSADCCISYTPRSIPCSLLESYFETNSECSKPGVIFLTKKGRRFCANPSDKQVQVCMRMLKLDTRIKTRKN | robust calcium flux | robust calcium flux | induces Ca^2+ release | partially active | unique calcium flux with extended calcium release | induced an unique calcium release | much higher than observed for the same amount of leukotactin stimulation | partially active
5 |  |  | 3-4 fold | CKβ8-1(1-116): alternatively spliced form of CKβ8, 116 amino acids, human recombinant chemokine (protein, listed as Homo sapiens) RVTKDAETEFMMSKLPLENPVLLDMLWRRKIGPQMTLSHAAGFHATSADCCISYTPRSIPCSLLESYFETNSECSKPGVIFLTKKGRRFCANPSDKQVQVCMRMLKLDTRIKTRKN |  |  |  |  | poor activity | neither MlP-1α nor CKβ8(1-99), CKβ8(25-99) or CKβ8(1-116) induced a calcium flux |  | 

— patent publication US8637043B2, “Compositions useful as ligands for the formyl peptide receptor like 1 receptor and methods of use thereof” (Chemocentryx, Inc., priority 2001, dated 2014)
